Source: publication PMC3711457, “Control of DNA minor groove width and Fis protein binding by the purine 2-amino group” (Nucleic Acids Research, 2013)

Tests used:
Fis (wild type) [1] = biological target: T1, Fis (wild type) (UniProt P0A6R3 1-98); assay: EMSA; 50 ug/ml poly dI/dC; 230-fold better than F29; half-life 5 min; EMSA with 50 ug/ml poly dI/dC as in ref 19; buffer, salt, pH and temperature not stated in the material; details: protein: recombinant; chain copies: 2; label: 32P; duplex
Fis (wild type) [2] = biological target: T1, Fis (wild type); assay: X-ray crystallography; 2.8 A; EMSA with 50 ug/ml poly dI/dC as in ref 19; buffer, salt, pH and temperature not stated in the material; details: protein: recombinant; chain copies: 2; label: 32P; duplex
[3] = biological target: the molecule itself; assay: crystal structure; Fis co-crystallized with DNA duplexes F28, F28-dI, F28-2AP and F29-dI; data collected at 100 K; molecular replacement with Fis-F1 (PDB 3IV5)
Fis (wild type) [4] = biological target: T1, Fis (wild type); assay: EMSA; 50 ug/ml poly dI/dC; high-affinity reference, Kd in figure only; EMSA with 50 ug/ml poly dI/dC as in ref 19; buffer, salt, pH and temperature not stated in the material; details: protein: recombinant; chain copies: 2; label: 32P; 27 bp duplex
Fis-K90A [5] = biological target: T2, Fis-K90A (UniProt P0A6R3 1-98, K90A); assay: EMSA; 50 ug/ml poly dI/dC; EMSA with 50 ug/ml poly dI/dC as in ref 19; buffer, salt, pH and temperature not stated in the material; details: protein: recombinant; chain copies: 2; label: 32P; 27 bp duplex
Fis (wild type) [6] = biological target: T1, Fis (wild type); assay: X-ray crystallography; 2.7 A; EMSA with 50 ug/ml poly dI/dC as in ref 19; buffer, salt, pH and temperature not stated in the material; details: protein: recombinant; chain copies: 2; label: 32P; 27 bp duplex
Fis-K90A [7] = biological target: T2, Fis-K90A; assay: EMSA; 50 ug/ml poly dI/dC; essentially abolished; EMSA with 50 ug/ml poly dI/dC as in ref 19; buffer, salt, pH and temperature not stated in the material; details: protein: recombinant; chain copies: 2; label: 32P; 27 bp duplex
Fis-K90A [8] = biological target: T2, Fis-K90A; assay: EMSA; 50 ug/ml poly dI/dC; EMSA with 50 ug/ml poly dI/dC as in ref 19; buffer, salt, pH and temperature not stated in the material; details: protein: recombinant; chain copies: 2; duplex
Fis (wild type) [9] = biological target: T1, Fis (wild type); assay: EMSA; 50 ug/ml poly dI/dC; 60-fold better than F28; half-life 14 min; EMSA with 50 ug/ml poly dI/dC as in ref 19; buffer, salt, pH and temperature not stated in the material; details: protein: recombinant; chain copies: 2; label: 32P; 27 bp duplex
Fis-K90A [10] = biological target: T2, Fis-K90A; assay: EMSA; 50 ug/ml poly dI/dC; binding largely restored; EMSA with 50 ug/ml poly dI/dC as in ref 19; buffer, salt, pH and temperature not stated in the material; details: protein: recombinant; chain copies: 2; label: 32P; 27 bp duplex
Fis (wild type) [11] = biological target: T1, Fis (wild type); assay: EMSA; 50 ug/ml poly dI/dC; EMSA with 50 ug/ml poly dI/dC as in ref 19; buffer, salt, pH and temperature not stated in the material; details: protein: recombinant; chain copies: 2; duplex

B1: F29-dI (dsDNA)
DNA 1: AAATTTGTTTGGGCGCTGAGCAAATTT
DNA 2: AAATTTGCTCAGCGCCCAAACAAATTT
modifications: inosine replaces the guanines of the five central G/C pairs (IICIC), on both strands
Fis (wild type) [1]
  binding signal: ~8 fold worse than F1

B2: F28-2AP (dsDNA)
DNA 1: AAATTTGTTTGAATATTGAGCAAATTT
DNA 2: AAATTTGCTCAATATTCAAACAAATTT
modifications: 2-aminopurine in three central 2AP/T pairs (2T2), on both strands
Fis (wild type) [2]
  binding result: binds

B3: Fis protein (natural protein)
chain: MFEQRVNSDVLTVSTVNSQDQVTQKPLRDSVKQALKNYFAQLNGQDVNDLYELVLAEVEQPLLDMVMQYTRGNQTRAALMMGINRGTLRKKLKKYGMN
notes: also called Fis-wt; wild-type Fis
[3]
  binding result: binds

B4: F1 (dsDNA)
DNA 1: AAATTTGTTTGAATTTTGAGCAAATTT
DNA 2: AAATTTGCTCAAAATTCAAACAAATTT
Fis (wild type) [4]
  binding result: binds
Fis-K90A [5]
  binding signal: ~1 fold of Fis-wt (indistinguishable)

B5: F28 (dsDNA)
DNA 1: AAATTTGTTTGAGCGTTGAGCAAATTT
DNA 2: AAATTTGCTCAACGCTCAAACAAATTT
Fis (wild type) [6]
  binding result: binds
Fis-K90A [7]
  binding result: no binding

B6: F30 (dsDNA)
DNA 1: AAAGCGGTTTGAATTTTGAGCCGCTTT
DNA 2: AAAGCGGCTCAAAATTCAAACCGCTTT
Fis-K90A [8]
  binding signal: 9 fold worse than Fis-wt

B7: F28-dI (dsDNA)
DNA 1: AAATTTGTTTGAGCGTTGAGCAAATTT
DNA 2: AAATTTGCTCAACGCTCAAACAAATTT
modifications: inosine replaces the guanines of the three central G/C pairs (ICI), on both strands
Fis (wild type) [9]
  Kd: < 1 nM
Fis-K90A [10]
  binding result: binds

B8: F27 (dsDNA)
DNA 1: AAATTTGTTTGAACTTTGAGCAAATTT
DNA 2: AAATTTGCTCAAAGTTCAAACAAATTT
Fis (wild type) [11]
  binding signal: ~1 fold of F1 (indistinguishable)
Fis-K90A [8]
  binding signal: 10 fold worse than Fis-wt
